Test [1] concerns the target T1, human IL-13 wild type (human, UniProt P35225 35-146).
T1 construct: also called h IL-13; h IL-13 wt
As to the kind of experiment: receptor binding assays (cell surface-based on IL-13Rα2-transfected COS cells and ELISA-based with IL-13Rα2/Fc), 13C5.5 blocking human IL-13 binding to human IL-13Rα2; range told over both assays. (In an ELISA, binding on a coated surface is turned into a signal by an enzyme label.)

In test [2] the target is T2, human IL-13 variant (R130Q) (human, UniProt P35225 35-146). The experiment in a line: cell-based or functional assay.
The target in test [3] is T1, human IL-13 wild type. The experiment in a line: cell-based or functional assay.
Test [4] concerns the target T1, human IL-13 wild type. As to the kind of experiment: SPR (Biacore). The protocol:
(§1) The BIACORE assay (Biacore, Inc, Piscataway, N.J.) determines the affinity of antibodies with kinetic measurements of on-, off-rate constants. […] All chemicals were obtained from Biacore® AB (Uppsala, Sweden) or otherwise from a different source as described in the text. Approximately 5000 RU of goat anti-mouse IgG, (Fcγ), fragment specific polyclonal antibody (Pierce Biotechnology Inc, Rockford, Ill.) diluted in 10 mM sodium acetate (pH 4.5) was directly immobilized across a CM5 research grade biosensor chip using a standard amine coupling kit according to manufacturer's instructions and procedures at 25 μg/ml. Unreacted moieties on the biosensor surface were blocked with ethanolamine. Modified carboxymethyl dextran surface in flowcell 2 and 4 was used as a reaction surface. Unmodified carboxymethyl dextran without goat anti-mouse IgG in flow cell 1 and 3 was used as the reference surface. For kinetic analysis, rate equations derived from the 1:1 Langmuir binding model were fitted simultaneously to association and dissociation phases of all eight injections (using global fit analysis) with the use of Biaevaluation 4.0.1 software. Purified antibodies were diluted in HEPES-buffered saline for capture across goat anti-mouse IgG specific reaction surfaces. Mouse antibodies to be captured as a ligand (25 μg/ml) were injected over reaction matrices at a flow rate of 5 μl/min. The association and dissociation rate constants, kₒₙ (unit M⁻¹s⁻¹) and koff (unit s⁻¹) were determined under a continuous flow rate of 25 μl/min Rate constants were derived by making kinetic binding measurements at ten different antigen concentrations ranging from 10-200 nM. […] Binding is recorded as a function of time and kinetic rate constants are calculated.

Test [5] addresses T1, human IL-13 wild type. The experiment in a line: ELISA-based receptor binding assay, blocking biotin-IL-13 binding to IL-13Rα2/Fc. The protocol: After 16 hr, coating solution was removed by flicking plate contents in sink, and plates were washed and blocked 4 times with Superblock Blocking Buffer (240 ul/well) (Pierce). […] Plates were washed 5 times with 300 ul 0.1% PBST, and then 100 ul of 1:5000 diluted mouse anti-Biotin MAb (Jackson Immunosciences) was added and incubated at RT for 45 min. The plates were washed again 5 times with 300 ul 0.1% PBST, followed by addition of TMB substrate reagent (100 ul/well, Pharmingen); developed for 5 min, and stopped by adding 50 ul of 2M H2SO4 (VWR). ODs at 450 nm were determined by spectrophotometry.

Test [6] addresses T2, human IL-13 variant (R130Q). As to the kind of experiment: SPR (Biacore). (In SPR one partner is held on a chip, and binding of the other changes the refractive index at the surface.)
For test [7], the target named is T1, human IL-13 wild type. As to the kind of experiment: SPR (Biacore). The source holds these as a separate data set.
The target in test [8] is T1, human IL-13 wild type. As to the kind of experiment: cell surface-based receptor binding assay, blocking 125I-IL-13 binding to IL-13Rα2-transfected COS cells. The protocol:
Recombinant human IL-13 was labeled with ¹²⁵I (Amersham, Arlington Heights, Ill.), using IODO-GEN reagent (Pierce, Rockford, Ill.) as previously described (Obiri N I et al., (1995) J Biol Chem. 270:8797-8804). […] Transfected COS cells (5×10^5 cells in 100 μL binding buffer: RPMI 1640 containing 0.2% human serum albumin and 10 mmol HEPES) were incubated with 1.0 nM ¹²⁵I-IL-13 with or without 1 uM unlabeled IL-13 at 4° C. for 2 hours. Cell-bound ¹²⁵I-IL-13 was separated from unbound ¹²⁵I-IL-13 by centrifugation through a phthalate oil gradient, and radioactivity was determined with a gamma counter (Wallac, Gaithersburg, Md.).

The target of test [9] is T1, human IL-13 wild type. The experiment in a line: SPR (Biacore), mAb captured, IL-13 as analyte; native recombinant human wild-type IL-13, Biacore. The method, then:
as §1

For test [10], the target named is T3, mouse IL-13 (mouse, UniProt P20109 26-131, limits assumed).
T3 construct: also called mIL-13; murine IL-13
T3 sequence (looked up): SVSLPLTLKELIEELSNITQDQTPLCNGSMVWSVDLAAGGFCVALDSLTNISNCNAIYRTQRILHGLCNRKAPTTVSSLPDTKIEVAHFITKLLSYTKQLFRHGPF
The experiment in a line: indirect ELISA, captured mAb, biotinylated mouse IL-13. The method, then: Murine anti-human IL-13 mAbs were prepared at various concentrations ranging from 0.1 to 100 ng/ml in PBS containing 0.1% BSA; 50 ul of each antibody dilution was added to the coated ELISA plate and incubated for 1 hour at room temperature. Wells were washed 3 times with PBS containing 0.05% Tween-20. […] Wells were washed 3 times with PBS containing 0.05% Tween-20. Streptavidin HRP (Pierce #21126, Rockland, Ill.) was diluted 1:20000 in PBS containing 0.1% BSA; […] was added and the plates incubated for 1 hour at room temperature. Plates were washed 3 times with PBS containing 0.05% Tween-20. Fifty microliters of TMB solution (Sigma # T0440, St. Louis, Mo.) was added to each well and incubated for 10 minutes at room temperature. The reaction was stopped by addition of 1N sulphuric acid. Plates were read spectrophotmetrically at a wavelength of 450 nm.

In test [11] the target is T4, cynomolgus IL-13 (cynomolgus, UniProt Q0PW92 21-132).
T4 construct: also called cyno IL-13; wild type cyno IL-13
As to the kind of experiment: not stated in the sentence (Biacore elsewhere).

Test [12] has as its target T2, human IL-13 variant (R130Q). As to the kind of experiment: not stated in the sentence (Biacore elsewhere).
Test [13] shares this target. As to the kind of experiment: SPR (Biacore), mAb captured, IL-13 as analyte. The method, then:
as §1

In test [14] the target is T1, human IL-13 wild type. As to the kind of experiment: blocking of IL-13 binding to IL-13Rα2: cell surface RBA (125I-IL-13, transfected COS cells) and receptor binding ELISA (IL-13Rα2/Fc); native IL-13 in solution; blocking of binding to IL-13Rα2, cell surface RBA and RB ELISA; upper end of range. The method, then: (§2) The plates were washed again 5 times with 300 ul 0.1% PBST, followed by addition of TMB substrate reagent (100 ul/well, Pharmingen); developed for 5 min, and stopped by adding 50 ul of 2M H2SO4 (VWR). ODs at 450 nm were determined by spectrophotometry.
(§3) Additionally, the receptor blocking properties of the mAbs were also assessed by receptor binding assay using IL-13Rα2-transfected COS cells. Recombinant human IL-13 was labeled with ¹²⁵I (Amersham, Arlington Heights, Ill.), using IODO-GEN reagent (Pierce, Rockford, Ill.) as previously described (Obiri N I et al., (1995) J Biol Chem. 270:8797-8804). […] For binding experiments, COS cells were transiently transfected with human IL-13Rα2 by Lipofectamine 2000 (Invitrogen), and incubated for 48 hr. Transfected COS cells (5×10^5 cells in 100 μL binding buffer: RPMI 1640 containing 0.2% human serum albumin and 10 mmol HEPES) were incubated with 1.0 nM ¹²⁵I-IL-13 with or without 1 uM unlabeled IL-13 at 4° C. for 2 hours. Cell-bound ¹²⁵I-IL-13 was separated from unbound ¹²⁵I-IL-13 by centrifugation through a phthalate oil gradient, and radioactivity was determined with a gamma counter (Wallac, Gaithersburg, Md.).

Test [15] addresses T4, cynomolgus IL-13. The experiment in a line: cell-based or functional assay.
In test [16] the target is T2, human IL-13 variant (R130Q). The experiment in a line: cell-based or functional assay. The source holds these as a separate data set.
Test [17] has as its target T1, human IL-13 wild type. As to the kind of experiment: cell-based or functional assay. This is another data set of the same source.
Test [18] has as its target T1, human IL-13 wild type. As to the kind of experiment: blocking of IL-13 binding to IL-13Rα2: cell surface RBA (125I-IL-13, transfected COS cells) and receptor binding ELISA (IL-13Rα2/Fc); native IL-13 in solution; blocking of binding to IL-13Rα2, cell surface RBA and RB ELISA; lower end of range. The protocol: as §2, §3
Test [19] concerns the target T3, mouse IL-13. The experiment in a line: SPR (Biacore).
Test [20] deals with T3, mouse IL-13. The experiment in a line: BIACORE against recombinant mouse IL-13.
For test [21], the target named is T1, human IL-13 wild type. As to the kind of experiment: SPR (Biacore), mAb captured, IL-13 as analyte. The method, then:
as §1

Test [22] concerns the target T2, human IL-13 variant (R130Q). The experiment in a line: SPR (Biacore), mAb captured, IL-13 as analyte; row shifted, read as variant IL-13 columns. The method, then: as §1
Test [23] addresses T3, mouse IL-13. As to the kind of experiment: cell-based or functional assay.

Several values for one entry are separate records, joined by “and”; a condition that tells them apart may be missing. Equal entries are not always repeated.

T1 sequence (P35225 other isoform, or with tags, fused parts or gaps limits assumed): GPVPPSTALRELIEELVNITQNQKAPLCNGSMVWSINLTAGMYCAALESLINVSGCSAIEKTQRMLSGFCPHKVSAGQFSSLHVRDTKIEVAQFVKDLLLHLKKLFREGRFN
T2 sequence (P35225 35-146 limits assumed, stated change not applied): as the sequence (P35225 other isoform, or with tags, fused parts or gaps limits assumed) above, with R110Q counted along it
T4 sequence (Q0PW92 entry or part of it): as the sequence (P35225 other isoform, or with tags, fused parts or gaps limits assumed) above, with G1S, R10K, M42V, S67N, H83R, L100V, R110Q counted along it

B1: 13C5.5 (antibody, human IgG1, V domains shown)
VH: EVTLRESGPGLVKPTQTLTLTCTLYGFSLSTSDMGVDWIRQPPGKGLEWLAHIWWDDVKRYNPALKSRLTISKDTSKNQVVLKLTSVDPVDTATYYCARTVSSGYIYYAMDYWGQGTLVTVSS
VL: DIQMTQSPSSLSASVGDRVTISCRASQDIRNYLNWYQQKPGKAPKLLIFYTSKLHSGVPSRFSGSGSGTDYTLTISSLQPEDIATYYCQQGNTLPLTFGGGTKVEIK
notes: Humanized; The light chain row is printed 'VL 1305.5'; also called humanized 13C5; recombinant humanized antibody 13C5.5
B1: the IC50 in the test with human IL-13 wild type [1] was ≥ 1 nM and ≤ 3 nM; with human IL-13 wild type [5], 1.1 nM; with human IL-13 wild type [8] it was 2.7 nM. In addition, the entries for the “Potency (IC50), A-549 bioassay” value (in test [2]; with human IL-13 wild type [3]) were 0.069 nM and 0.124 nM, respectively. Moreover, the Kd with human IL-13 wild type [4] worked out at 0.0701 nM; in [6], 0.05 nM; in the test with human IL-13 wild type [7], 0.07 nM. In the test with human IL-13 wild type [4], the koff came to 0.000176 s⁻¹. Further, in the test with human IL-13 wild type [4], the kon was 2.51e+06 M⁻¹ s⁻¹.

B2: 13C5 (antibody, V domains shown)
VH: QVTLKESGPGILQPSQTLSLTCSFSGFSLSTSDMGVDWIRQPSGKGLEWLAHIWWDDVKRYNPALKSRLTISKDTSSSQVFLMLASVDTADTATYYCARTVSSGYIYYAMDYWGQGTSVTVSS
VL: DIQMTQTASSLSASLGDRVTISCRASQDIRNYLNWYQRKPDGTVKLLIFYTSKLHSGVPSRFSGSGSGTDYSLTIRNLEQEDIATYFCQQGNTLPLTFGGGTKLEIKR
notes: also called murine 13C5
Turning to B2, the equilibrium dissociation constant (Kd) was found to be 0.0745 nM in the test with human IL-13 wild type [9], 1.8 nM in the test with cynomolgus IL-13 [11], 0.05 nM in test [12] and 0.0759 nM in test [13]. Further, the koff is 9.31e-05 s⁻¹ in the test with human IL-13 wild type [9] and 4.35e-05 s⁻¹ in test [13]. Also, the association rate constant (kon) in the test with human IL-13 wild type [9] was 1.25e+06 M⁻¹ s⁻¹; in test [13] it was 574000 M⁻¹ s⁻¹. In addition, the binding result with mouse IL-13 [10] is reported as “no binding (tested: 0.1 to 100 ng/ml)”. The IC50 with human IL-13 wild type [14] and with human IL-13 wild type [18] was 1 to 3 nM each time. In addition, the “Average IC50, IL-13-induced TARC production by A-549 cells” value with cynomolgus IL-13 [15] turned out to be 5 nM; in test [16], 0.17 nM; with human IL-13 wild type [17], 0.19 nM.

B3: 3H7 (antibody, mouse IgG1, V domains shown)
VH: EVQLVESGGGLVKPGGSLKLSCAASGFTFSTYAMSWVRQTPEKRLEWVAGISSGGSYTYYPETMKGRFTISRDNARNTLYLQMSSLRSEDTAIYYCTRGSWGQGTSVTVSS
VL: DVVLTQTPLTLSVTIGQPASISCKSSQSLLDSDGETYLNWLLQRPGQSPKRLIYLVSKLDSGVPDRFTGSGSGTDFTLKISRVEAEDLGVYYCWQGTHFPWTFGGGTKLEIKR
notes: Murine monoclonal; also called mAb 3H7
With B3, the results for the Kd (in the test with mouse IL-13 [19]; with mouse IL-13 [20]; in test [22]) were 12 nM, 11.2 nM and 0.22 nM, respectively. The binding result in the test with human IL-13 wild type [21] is given as “no binding”. In test [22], the koff turned out to be 5.58e-05 s⁻¹. Also, the kon in test [22] amounted to 254000 M⁻¹ s⁻¹. Moreover, the “IC50, A-549 bioassay against recombinant mouse IL-13” value with mouse IL-13 [23] turned out to be 2.43 nM. Also, the results for the “Average IC50, IL-13-induced TARC production by A-549 cells” value (with cynomolgus IL-13 [15]; in [16]) were 0.797 nM and 0.58 nM, respectively.

Usually IC50 stands for the midpoint of a concentration-inhibition curve. Higher therefore signals weaker potency in that assay. Broadly, the Kd is the free concentration of one partner at which half of the binding sites on the other are occupied at equilibrium, for simple one-to-one binding. Broadly, the koff is a measure of how fast the partners let go of each other. The term kon denotes the second-order rate constant of association.

The record behind these values is patent publication US20110165066A1 (AbbVie / Abbott, published 2011).
